Measurements as given in US20240043568A1.
One block for each substance: values may come before it.

Experiments:
[1] = target: human CD3 on T cells (human) (UniProt P07766); assay: flow cytometry, human peripheral blood CD4+ T cells
[2] = target: human CD3 on T cells (human) (UniProt P07766); assay: flow cytometry, human peripheral blood CD8+ T cells
[3] = target: human CD3 on T cells (human) (UniProt P07766); assay: flow cytometry, Jurkat cells
[4] = target: human GPC3 on cells (human) (UniProt P51654); assay: flow cytometry on human GPC3-CHO stably-transfected cells, MFI
[5] = target: recombinant human GPC3 protein (human) (UniProt P51654); assay: ELISA on coated recombinant human GPC3 protein, OD450 [panel Recombinant human GPC3 protein]
[6] = target: recombinant cynomolgus monkey GPC3 full-length protein (cynomolgus monkey); assay: ELISA on coated recombinant cynomolgus monkey GPC3 protein, OD450 [panel Recombinant cynomolgus monkey GPC3 protein]
[7] = target: human GPC3 on cells (human) (UniProt P51654); assay: flow cytometry, CHO-human GPC3 cells
[8] = target: recombinant human GPC3 protein (human) (UniProt P51654); assay: ELISA, coated antigen 1 µg/ml
[9] = target: recombinant GST-human GPC3 stem protein (human); assay: ELISA, coated antigen 1 µg/ml
[10] = target: recombinant cynomolgus monkey GPC3 full-length protein (cynomolgus monkey); assay: ELISA, coated antigen 1 µg/ml
[11] = target: recombinant human GPC3 protein (human) (UniProt P51654); assay: BLI (Octet), antibody on Protein A probe
[12] = target: recombinant human GPC3 protein (human) (UniProt P51654); assay: SPR (Biacore T200), antibody on Protein A chip, GPC3 as analyte
[13] = target: recombinant cynomolgus monkey GPC3 full-length protein (cynomolgus monkey); assay: as above
[14] = target: recombinant human GPC3 protein (human) (UniProt P51654); assay: BLI (Octet), antibody on Protein A probe; remark: listed apart in the source

Sequence of recombinant GST-human GPC3 stem protein (human) (chain, as listed by the source limits assumed, form in doubt): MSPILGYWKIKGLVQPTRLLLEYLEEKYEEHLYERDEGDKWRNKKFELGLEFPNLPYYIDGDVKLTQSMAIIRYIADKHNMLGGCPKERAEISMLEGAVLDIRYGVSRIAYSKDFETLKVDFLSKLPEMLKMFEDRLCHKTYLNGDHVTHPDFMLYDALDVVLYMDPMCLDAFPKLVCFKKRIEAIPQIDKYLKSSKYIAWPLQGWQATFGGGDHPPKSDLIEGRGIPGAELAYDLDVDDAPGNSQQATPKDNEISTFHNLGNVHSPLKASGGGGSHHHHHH

EC50 [1]: 77 nM | EC50 [2]: 84 nM | EC50 [3]: 27 nM
Substance: KLH×CD3 (bispecific antibody)

EC50 [3]: 0.27 nM
Substance: OKT3-hIgG1 (antibody)

EC50 (read off the curve) [4]: 4 nM | EC50 (read off the curve) [5]: 0.03 nM | EC50 (read off the curve) [6]: 0.03 nM | EC50 [7]: 2.74 nM | EC50 [8]: 0.074 nM | EC50 [9]: 0.06 nM | EC50 [10]: 0.16 nM | Kd [11]: 4.17 nM | koff [11]: 0.000229 s⁻¹ | kon [11]: 54900 M⁻¹ s⁻¹ | Kd [12]: 1.03 nM | koff [12]: 0.000185 s⁻¹ | kon [12]: 181000 M⁻¹ s⁻¹ | Kd [13]: 6.38 nM | koff [13]: 0.000429 s⁻¹ | kon [13]: 67200 M⁻¹ s⁻¹ | Kd [14]: 1.35 nM | koff [14]: 0.000111 s⁻¹ | kon [14]: 82600 M⁻¹ s⁻¹
Substance: GC33 (antibody)
